Results: the domain aggregation screens of Martell et al. (2025)

Experiment: soluble fraction after stress (log2 fold change); higher = more stays soluble; pooled small domains, quantitative proteomics
Conditions: stress: 75 degC
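Also: 20 min heating vs room temperature control held 20 min.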

Sequence | soluble fraction (log2)
HMRMSLDEAKAVVLPIGEYKGRNMGEVLAIKPELIDFYASQKFNSSKYPYLKEAAQVILENQ | 0.114
HMKELAADFSRRIINARTSKGWSQADLGQRMAETINVIKSAESGKPPTDAVVKKFETVLGVILM | -1.06
HMDENILKTRIEDLDLSVRTIKALTGASIRTVSGLARKKESDLLEISGLGDKGIQEIKRALGSLGITL | -0.498
HMGYINLNVKVSPEWRDFWRSAYASVVAGYHQNKEHWNTIILDGSIPDKDIKRMIAESYDLVSD | -0.561
HMALDLNEDEKLLVELIEKAGGTAGLGELKEASGLSGKKWDKTTKNLSKEGLIKVEKNESGLWVHLT | 0.0861
HMEDNLMIVVQVNGKKRSEIKVSIDASEDQIKQTALAEPNVQKFVEGHTIRKMILVPSKLLNIVV | -1.65
HMQDTRSHARKMLAAIEALLEGRSGSDIQAYTIHNRSITKMTVPELVKWRSYYQQQVRSEDAAASLA | -0.61
HMKPSTVSVPDVSGDKLSTAKMIIRKSGLKVGDVQKIEDDNVGAGKVVRTNPSAGSKKREGSSVDIFVASA | -0.0331
HMRLEEVSVPQRLLAAIAEEREVQIGIVDGRGGTRVLRVEPLALEGGRLRARDVESGEEFTVLIHRVLL | -1.19
HMKNDIQLKHDVEEELQWDPAVDASRFAVQAKDGVVTLSGGVDTFADKHAAEEAIRRVAGVTALVIHVDV | -0.27
HMETIGKRVRAARQELGLTMKQLHEQTGLSTGNISDIENDRNTPSVSSLVALGRALRRSLDWLLTGEE | -0.959
HMYTPDYLSDLMVRMAHHSTAIEGNTLTQGETKSVLVDGYIPRAMDMRELNEVLNYKAFMTFLVE | -0.0939
HMVVDEQRIQTLVSAAEQNSSDPVPRVTLGNLYFDAEQFEEAVKWYEQALALDPRNVNVSTDLGVGYYY | 0.113
HMSASNSIDFANRMIYNKNQVAVFNFGKHMGRPVLEVLKSDPSYYDWMMKGDFPMDTKRKLTEIKLQGF | -0.793
HMNINHEINIKSKKKISILENNPNLSQFYLTKNPDQYNYNLVFSDKSELNKLKEKLESDNEVEDIDIRYG | -0.0517
HMPSLAVYPNPVKDILNIATDKPVHSIRIYNVYGSEVLRAADTNRIDVSHLPAGVYMVSADGKVTRIIK | -0.858
HMGTIEQAFKGKAPGSAHLYDRARAVLAGGVTHDTRIHAPFPIMVQRALGARKWDVDGNEYIDY | 0.064
HMRPPLRAAIIDHLARDWHTVAELARLLPASGAHVSRLVVELRAVGAVDERISHPDWPGNRPTEYRLRRA | -3.57
HMIKIDESTLSEDELKIFEILKIEDKNIENIAIESKILPGKLLATLMNMEMKKIVVQYPGKVFGLNRKLK | -1.81

Sequence | soluble fraction (log2)
HMGASFITSSKDNAINIRESATTDSKVIETIKNGEILESTEKSGDWHKVTYYNSEIKKSFTGYIHNSQLK | 0.426
HMQSQIAQLYNPLLGYVKKRINSREDAEDLTQDIFLKLSKSNKDGVDNLKSWLYTIAKNTITDYYRKKKII | -0.0844
HMELSSRQAMIVDIVRKYEPITSEQIADKLNLTRSALRPDLAVLTMIGILEARPRVGYFFTGK | -1.91
HMGTMKGFVDGSSVHLRSGPSLSESIRAKVVKGQTLYITERRGDWYRATVHGGGEGWIHTSLVKLAG | -1.68
HMTFSDKIRELRKQKGVSQAVVAEYLGITKQAYSLYETGKREPDFDSLLKLAEYFGTDTDSLLY | -1.52
HMSLDTASDKELLGLIVSEPIATRVLDAFRTLDATLFRTTPAELAAAAGVSSEHAQKIKAVAEIAARMLKP | -0.343
HMLSPPWYEYHRKVQAMFGRDPEVHIKDLDDLGDGKFSYMILVYNKEKAEAIKAILPQKVEMGNVTIETAI | -1.87
HMRYNPETTAGRRGLIIKMLDEYGQVNVNELSRYFNVSEVTVRNDLAYLERKNLLIRARGGAIKTE | -1.91
HMEAYDTMEDRTTLAPGFAKLDKRERYILHLRFFEGLTQSQIAERVGISQMHVSRLIRRSLEKLREEIGD | -2.67
HMDMSDFEVVRDMYLTGKVWNAGDIVEAKGITGEVVRKGTNYLSFVDKNGKVHKAWLHEIEL | -0.197
HMYDKKVFRLLFILNQLDSRKKVSTGELAKEFNVSPRTVQRDIVLLNTTGFPIISLEKGYHSFMEGFSLK | -1.19
HMSAMKYTSEVFQRLSRGQFISSNSIDAETRAIYSDIEENQQEYEDYFSKIDFLLSSGDGFYYFSRK | -2.38
HMQAGNAVEQYPTIGRLEEVTLGRSQPGAPIGERLSTLETVVFKRNFNDDSLFDRTERLKKTILGG | -0.104
HMDTPPGLSPEEQAIIDIITTRGDATINELTASIDIPTPRLMGMLVDMEFRSLIAAIPGGRYRI | -1.82
HMNTEKRVFAGVENTRLDHFLVEQFPEFSRTFIQQMIKSANVIVNGNIEKASYKLREGDTIMTRPM | -0.489
HMTGELEVTAAGLSPEKLLNLAAKNHITLSNVKRLSYTQLSFRIGPADYNRLKKLLPEGRYKLNVGSS | -2.28
HMTEWDDATVKDAVEYFMSVNGRVPTVTDFKKENGLPSHPVIKQRYKINLHEWLNKNFPTYY | -1.3
HMDRMFQPETWSKIYQWVMNDPQVPDKEDVLALIRRHFGNFEKLIKLLHYLDGGKPYAYLSEH | -0.473
HMKTITLDEAQEIALAEVDGKVTRAVEETDDGRSYYEFDIITNDQKHELEVDASSGKITKNEIDEDYVPS | 0.0581
